Here are results for 3 molecules from publication PMC2932728, “The Canine Papillomavirus and Gamma HPV E7 Proteins Use an Alternative Domain to Bind and Destabilize the Retinoblastoma Protein” (PLoS Pathogens, 2010).

One assay deals with pRb. Briefly: GST pull-down, Western blot with anti-pRb antibody, densitometry. The note with it: binding normalized to GSTE7 protein; wild type CPV-2 E7 GST fusion set to 100%; parent: 100. (In western blotting, separated proteins are transferred to a membrane and probed.)
The target of another assay is T1, GST HPV16 E7CR1CR2 (human papillomavirus type 16 (HPV16), UniProt P03129 1-38).
T1 construct: E7 protein of human papillomavirus type 16, CR1 and CR2 domains; also called the combined CR domains; source: E. coli BL21pLysS, purified (glutathione-Sepharose)
T1 chain: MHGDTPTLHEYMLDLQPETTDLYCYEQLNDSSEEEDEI
Briefly: pull-down; 5 µg GST fusion protein with 50 µg Jurkat cell nuclear extract, 1 h at 4°C in 20 mM Hepes/150 mM KCl/4 mM MgCl2/1 mM EDTA/0.02% Nonidet P-40/10% glycerol; glutathione-Sepharose beads; Western blot for pRb and GST, densitometry normalised to GSTE7, wild type CPV-2 E7 set to 100%. Conditions: one partner purified.

For “GST CPV-2 E7 wild type fusion protein S26G”, the percent of parent with pRb was 99%.
Same read-out and setting: the value for “GST CPV-2 E7 wild type fusion protein S26C” was 147%.

B1: human retinoblastoma tumor suppressor protein pRb (natural protein, human (endogenous in Jurkat), UniProt P06400 1-928, looked up)
chain: MPPKTPRKTAATAAAAAAEPPAPPPPPPPEEDPEQDSGPEDLPLVRLEFEETEEPDFTALCQKLKIPDHVRERAWLTWEKVSSVDGVLGGYIQKKKELWGICIFIAAVDLDEMSFTFTELQKNIEISVHKFFNLLKEIDTSTKVDNAMSRLLKKYDVLFALFSKLERTCELIYLTQPSSSISTEINSALVLKVSWITFLLAKGEVLQMEDDLVISFQLMLCVLDYFIKLSPPMLLKEPYKTAVIPINGSPRTPRRGQNRSARIAKQLENDTRIIEVLCKEHECNIDEVKNVYFKNFIPFMNSLGLVTSNGLPEVENLSKRYEEIYLKNKDLDARLFLDHDKTLQTDSIDSFETQRTPRKSNLDEEVNVIPPHTPVRTVMNTIQQLMMILNSASDQPSENLISYFNNCTVNPKESILKRVKDIGYIFKEKFAKAVGQGCVEIGSQRYKLGVRLYYRVMESMLKSEEERLSIQNFSKLLNDNIFHMSLLACALEVVMATYSRSTSQNLDSGTDLSFPWILNVLNLKAFDFYKVIESFIKAEGNLTREMIKHLERCEHRIMESLAWLSDSPLFDLIKQSKDREGPTDHLESACPLNLPLQNNHTAADMYLSPVRSPKKKGSTTRVNSTANAETQATSAFQTQKPLKSTSLSLFYKKVYRLAYLRLNTLCERLLSEHPELEHIIWTLFQHTLQNEYELMRDRHLDQIMMCSMYGICKVKNIDLKFKIIVTAYKDLPHAVQETFKRVLIKEEEYDSIIVFYNSVFMQRLKTNILQYASTRPPTLSPIPHIPRSPYKFPSSPLRIPGGNIYISPLKSPYKISEGLPTPTKMTPRSRILVSIGESFGTSEKFQKINQMVCNSDRVLKRSAEGSNPPKPLKKLRFDIEGSDEADGSKHLPGESKFQQKLAEMTSTRTRMQKQKMNDSMDTSNKEEK
notes: retinoblastoma protein pRb, human, endogenous in Jurkat cell nuclear extract; also called human pRb; source: endogenous, Jurkat cell nuclear extract
In the case of B1, the “fold pRb bound against the HPV16 E7 carboxyl-terminus domain” value with GST HPV16 E7CR1CR2 was determined as 6 fold.
